According to patent US20240279281A1, “Peptide Inhibitors of Interleukin-23 Receptor” (Janssen Pharmaceutica NV, priority 2023, published 2024):
Values belong to the binder of their own block, whether it stands above or below them. Starred links: 1 amine or outer side, 2 acyl side, 3 side chain; linkers in the order of their positions; H or OH if unused. Positions of bridges follow the written chain, without caps; N, C: chain ends. Non-standard residues stand in square brackets, D forms with d. No end group written: not given here. X3 = 4‑(2-(4-(2-amino-2-carboxyethyl)phenoxy)ethyl)‑4‑methylmorpholin‑4‑ium, C[N+]1(CCOc2ccc(CC(N[*:1])C(=O)[*:2])cc2)CCOCC1; X6 = 2‑amino‑3‑(4-carbamoyl-1H-imidazol-1-yl)propanoic acid, NC(=O)c1cn(CC(N[*:1])C(=O)[*:2])cn1; 2Nal(6-OH) = N[C@@H](Cc1ccc2cc(O)ccc2c1)C(=O)O; Trp(7-Me) = Cc1cccc2c(C[C@H](N)C(=O)O)c[nH]c12; AEF = NCCOc1ccc(C[C@H](N)C(=O)O)cc1; 3Pal = N[C@@H](Cc1cccnc1)C(=O)O; Pen = CC(C)(S)[C@H](N)C(=O)O; lipid = not defined here; Thp = NC1(C(=O)O)CCOCC1; Sar = CNCC(=O)O

Target: T1, interleukin-23 receptor (IL-23R), Q5VWK5
T1 chain: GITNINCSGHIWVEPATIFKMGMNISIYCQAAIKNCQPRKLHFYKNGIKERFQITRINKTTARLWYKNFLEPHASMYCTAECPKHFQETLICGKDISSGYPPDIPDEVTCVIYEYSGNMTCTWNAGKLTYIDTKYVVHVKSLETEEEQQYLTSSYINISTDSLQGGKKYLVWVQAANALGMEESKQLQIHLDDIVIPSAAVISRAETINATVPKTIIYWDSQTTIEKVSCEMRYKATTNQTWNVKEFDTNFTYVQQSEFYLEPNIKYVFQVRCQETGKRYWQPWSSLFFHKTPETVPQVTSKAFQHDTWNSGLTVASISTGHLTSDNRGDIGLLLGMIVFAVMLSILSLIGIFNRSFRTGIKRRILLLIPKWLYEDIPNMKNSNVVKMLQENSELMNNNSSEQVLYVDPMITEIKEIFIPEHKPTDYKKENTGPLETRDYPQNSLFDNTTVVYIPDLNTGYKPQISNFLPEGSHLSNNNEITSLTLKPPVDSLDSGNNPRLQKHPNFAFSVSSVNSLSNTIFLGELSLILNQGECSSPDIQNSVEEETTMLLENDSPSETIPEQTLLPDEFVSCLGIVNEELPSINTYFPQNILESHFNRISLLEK
Test: cell-based or functional assay

B1: SEQ ID NO: 72 (peptide)
peptide: [Pen]NT[Trp(7-Me)]K(Ac)[Pen][AEF][2Nal(6-OH)][Thp]K(Ac)N[3Pal][Sar]K
modifications: not fully specified (bridges); ends and bridges not checked; also: K14: lipidated lysine, lipid not given here
IL23R Reporter Assay IC50: < 10 nM

Binder: [(R)‑3‑carboxy‑2‑(4-(((R)-5-carboxy-5-hydrazineylpentyl)amino)-4-oxobutanamido)‑N,N,N‑trimethylpropan‑1‑aminium][Pen]NT[Trp(7-Me)]K(Ac)[Pen][2‑amino‑3‑(4-(2-aminoethoxy)phenyl)propanoic acid][2‑amino‑3‑(6-hydroxynaphthalen-2-yl)propanoic acid][Thp]EN[3Pal][Sar] (disulfide 2-7 (inferred); ends not checked) [SEQ ID NO: 265]
PBMC pSTAT3 IC50: < 1 nM

Binder: [Pen]NT[Trp(7-Me)]K(Ac)[Pen][5‑(4-(2-amino-2-carboxyethyl)phenoxy)‑N,N,N‑trimethylpentan‑1‑aminium][2Nal(6-OH)][Thp]EN[3Pal][Sar] (not fully specified (bridges); ends and bridges not checked) [SEQ ID NO: 75]
IL23R Reporter Assay IC50: < 10 nM

B6: SEQ ID NO: 81 (peptide)
peptide: [Pen]NT[Trp(7-Me)]K[Pen][2‑amino‑3‑(4-(2-aminoethoxy)phenyl)propanoic acid][2‑amino‑3‑(6-hydroxynaphthalen-2-yl)propanoic acid][Thp]K(Ac)N[3Pal][Sar]
modifications: not fully specified (bridges); ends and bridges not checked; also: K5: lipidated lysine, lipid not given here
IL23R Reporter Assay IC50: < 10 nM

Binder: [(R)‑3‑carboxy‑2‑(4-(((R)-5-carboxy-5-hydrazineylpentyl)amino)-4-oxobutanamido)‑N,N,N‑trimethylpropan‑1‑aminium][Pen]NT[Trp(7-Me)]K(Ac)[Pen][2‑amino‑3‑(4-(2-aminoethoxy)phenyl)propanoic acid][2‑amino‑3‑(6-hydroxynaphthalen-2-yl)propanoic acid][Thp]EN[3Pal][Sar] (disulfide 2-7 (inferred); ends not checked) [SEQ ID NO: 263]
PBMC pSTAT3 IC50: < 1 nM

Binder: R[Pen]NTWK(Ac)[Pen][X3][2Nal(6-OH)][Thp]EN[3Pal][Sar] (not fully specified (bridges); ends and bridges not checked) [SEQ ID NO: 73]
IL23R Reporter Assay IC50: < 10 nM

Binder: [(R)‑3‑carboxy‑2‑(4-(((R)-5-carboxy-5-hydrazineylpentyl)amino)-4-oxobutanamido)‑N,N,N‑trimethylpropan‑1‑aminium][Pen]NT[Trp(7-Me)]K(Ac)[Pen][2‑amino‑3‑(4-(2-aminoethoxy)phenyl)propanoic acid][2‑amino‑3‑(6-hydroxynaphthalen-2-yl)propanoic acid][Thp]EN[3Pal][Sar] (disulfide 2-7 (inferred); ends not checked) [SEQ ID NO: 264]
PBMC pSTAT3 IC50: < 10 pM

B8: SEQ ID NO: 80 (peptide)
peptide: [Pen]NT[Trp(7-Me)]K(Ac)[Pen][2‑amino‑3‑(4-(2-aminoethoxy)phenyl)propanoic acid][2‑amino‑3‑(6-hydroxynaphthalen-2-yl)propanoic acid][Thp]KN[3Pal][Sar]
modifications: not fully specified (bridges); ends and bridges not checked; also: K10: lipidated lysine, lipid not given here
IL23R Reporter Assay IC50: < 10 nM

Binder: [(R)‑3‑carboxy‑2‑(4-(((R)-5-carboxy-5-hydrazineylpentyl)amino)-4-oxobutanamido)‑N,N,N‑trimethylpropan‑1‑aminium][Pen]NT[Trp(7-Me)]K(Ac)[Pen][2‑amino‑3‑(4-(2-aminoethoxy)phenyl)propanoic acid][2‑amino‑3‑(6-hydroxynaphthalen-2-yl)propanoic acid][Thp]EN[3Pal][Sar] (disulfide 2-7 (inferred); ends not checked) [SEQ ID NO: 266]
PBMC pSTAT3 IC50: < 0.1 nM

Other lines, results leading:

PBMC pSTAT3 IC50: < 1 nM
Binder: R[Pen]ET[Trp(7-Me)]K(Ac)[Pen][AEF][2Nal(6-OH)][Thp]K(Ac)N[3Pal][Sar] (not fully specified (bridges); ends and bridges not checked) [SEQ ID NO: 421]

PBMC pSTAT3 IC50: < 1 nM
Binder: [Pen]NT[Trp(7-Me)]K(Ac)[Pen][2‑amino‑3‑(4-(2-aminoethoxy)phenyl)propanoic acid][2‑amino‑3‑(6-hydroxynaphthalen-2-yl)propanoic acid][Thp]K(Ac)N[3Pal][Sar]K(lipid) (disulfide 1-6 (inferred); ends not checked; also: K14: lipidated lysine) [SEQ ID NO: 277]

PBMC pSTAT3 IC50: < 1 nM
Binder: [Pen]NT[Trp(7-Me)]K(Ac)[Pen][2‑amino‑3‑(4-(2-aminoethoxy)phenyl)propanoic acid][2‑amino‑3‑(6-hydroxynaphthalen-2-yl)propanoic acid][Thp]K(Ac)N[3Pal][Sar]K(lipid) (disulfide 1-6 (inferred); ends not checked; also: K14: lipidated lysine) [SEQ ID NO: 271]

PBMC pSTAT3 IC50: < 0.1 nM
B2: SEQ ID NO: 420 (peptide)
peptide: R[Pen]ET[Trp(7-Me)]K(Ac)[Pen][AEF][2Nal(6-OH)][Thp]KN[3Pal][Sar]
modifications: not fully specified (bridges); ends and bridges not checked; also: K11: lipidated lysine

PBMC pSTAT3 IC50: < 0.1 nM
Binder: R[Pen]NT[Trp(7-Me)]K(Ac)[Pen][AEF][2Nal(6-OH)][Thp]EN[X6][Sar] (not fully specified (bridges); ends and bridges not checked) [SEQ ID NO: 419]

PBMC pSTAT3 IC50: < 1 nM
B3: SEQ ID NO: 268 (peptide)
peptide: K[Pen]NT[Trp(7-Me)]K(Ac)[Pen][2‑amino‑3‑(4-(2-aminoethoxy)phenyl)propanoic acid][2‑amino‑3‑(6-hydroxynaphthalen-2-yl)propanoic acid][Thp]EN[3Pal][Sar]
modifications: disulfide 2-7 (inferred); not fully specified (residue 1); ends not checked; also: K1: lipidated lysine

PBMC pSTAT3 IC50: < 1 nM
B4: SEQ ID NO: 425 (peptide)
peptide: R[Pen]KT[Trp(7-Me)]K(Ac)[Pen][AEF][2Nal(6-OH)][Thp]EN[3Pal][Sar]
modifications: not fully specified (residue 3, bridges); ends and bridges not checked; also: K3: lipidated lysine

PBMC pSTAT3 IC50: < 1 nM
B5: SEQ ID NO: 395 (peptide)
peptide: K[Pen]ET[Trp(7-Me)]K(Ac)[Pen][2‑amino‑3‑(4-(2-aminoethoxy)phenyl)propanoic acid][2‑amino‑3‑(6-hydroxynaphthalen-2-yl)propanoic acid][Thp]EN[3Pal][Sar]
modifications: not fully specified (residue 1, bridges); ends and bridges not checked; also: Lys1: lipidated lysine, lipid not given here

PBMC pSTAT3 IC50: < 1 nM
B7: SEQ ID NO: 267 (peptide)
peptide: [Pen]NT[Trp(7-Me)]K(Ac)[Pen][2‑amino‑3‑(4-(2-aminoethoxy)phenyl)propanoic acid][2‑amino‑3‑(6-hydroxynaphthalen-2-yl)propanoic acid][Thp]K(Ac)N[3Pal][Sar]K
modifications: disulfide 1-6 (inferred); not fully specified (residue 14); ends not checked; also: K14: lipidated lysine

PBMC pSTAT3 IC50: < 1 nM
B9: SEQ ID NO: 269 (peptide)
peptide: R[Pen]NT[Trp(7-Me)]K(Ac)[Pen][2‑amino‑3‑(4-(2-aminoethoxy)phenyl)propanoic acid][2‑amino‑3‑(6-hydroxynaphthalen-2-yl)propanoic acid][Thp]EN[3Pal][Sar]K
modifications: disulfide 2-7 (inferred); not fully specified (residue 15); ends not checked; also: K15: lipidated lysine

PBMC pSTAT3 IC50: < 1 nM
B10: SEQ ID NO: 423 (peptide)
peptide: K[Pen]ET[Trp(7-Me)]K(Ac)[Pen][AEF][2Nal(6-OH)][Thp]K(Ac)N[3Pal][Sar]
modifications: not fully specified (bridges); ends and bridges not checked; also: lipidated Lys1, lipid not given here
